Columns and labels:
human FcRn/b2M (human) [1] = target: human FcRn/b2M (human) (UniProt P61769); assay: SPR pH 7.4
human FcRn/b2M (human) [2] = target: human FcRn/b2M (human) (UniProt P61769); assay: SPR; pH 7.4 vs pH 6.0
human FcRn/b2M (human) [3] = target: human FcRn/b2M (human) (UniProt P61769); assay: SPR pH 6.0

- Kd (human FcRn/b2M (human) [1]): 1000 nM
- KD ratio pH 7.4/6.0 (human FcRn/b2M (human) [2]): 54
- Kd (human FcRn/b2M (human) [3]): 19 nM
B1: T0263018B11 bivalent (VHH, part only; not given: linker, not shown: small tags and cut ends)
chain, part: EVQLVESGGGVVQPGGSLRLSCAASGFTFSSYAMYWVRQAPGKGLEWVSAISSGGGSTDYADSVKGRFTISRDNSKNTLYLQMNSLRPEDTALYYCAADTLYTSLTWYSYWGQGTLVTVSSEVQLVESGGGVVQPGGSLRLSCAASGFTFSSYAMYWVRQAPGKGLEWVSAISSGGGSTDYADSVKGRFTISRDNSKNTLYLQMNSLRPEDTALYYCAADTLYTSLTWYSYWGQGTLVTVSS
